Results on 3 substances are retold here after article PMC7055372.

This test addresses Transforming growth factor β-1 (TGFβ-1) (UniProt P01137). Put plainly: ELISA of cell-culture supernatant with anti-TGFβ-1 antibody after acid activation (latent complex formation/secretion). To be noted: HEK293T cells transfected, supernatant after 48 h; acid-activated (short incubation with HCl); parent: est. 1.0; read off a plot.
As for “LAP of wild-type LTGFβ-1 C4S (full-length LTGFβ-1 expressed in HEK-293T cells) (from UniProt P01137) E113P”, the response (Normalized OD450) stood at 0.6.
“LAP of wild-type LTGFβ-1 C4S (full-length LTGFβ-1 expressed in HEK-293T cells) (from UniProt P01137) L111P”: the response (Normalized OD450) came to 0.18.
In the case of “LAP of wild-type LTGFβ-1 C4S (full-length LTGFβ-1 expressed in HEK-293T cells) (from UniProt P01137) S109P”, the response (Normalized OD450) came to 0.53.
